These results are taken from PMC9911311.

This assay addresses Adeno-associated virus type 2 (AAV2) capsid viral protein VP3 (adeno-associated virus type 2). Briefly: cryo-EM structure.

In the case of “Adeno-associated virus type 2 (AAV2) capsid viral protein VP3 (natural protein)”, the stoichiometry N (as a rule, a count of units in the complex or per binding partner) turned out to be 60.
